Laboratory results from PMC6378967.

Assay: steady-state kinetics, released Ang I immunoassay
Conditions: glycan lost; control: fully glycosylated WT AGT

| Protein | other: proteolytic processing, kcat_Km |
| --- | --- |
| angiotensinogen (AGT): N14Q (protein) parent chain: MAPAGVSLRATILCLLAWAGLAAGDRVYIHPFHLVIHNESTCEQLAKANAGKPKDPTFIPAPIQAKTSPVDEKALQDQLVLVAAKLDTEDKLRAAMVGMLANFLGFRIYGMHSELWGVVHGATVLSPTAVFGTLASLYLGALDHTADRLQAILGVPWKDKNCTSRLDAHKVLSALQAVQGLLVAQGRADSQAQLLLSTVVGVFTAPGLHLKQPFVQGLALYTPVVLPRSLDFTELDVAAEKIDRFMQAVTGWKTGCSLMGASVDSTLAFNTYVHFQGKMKGFSLLAEPQEFWVDNSTSVSVPMLSGMGTFQHWSDIQDNFSVTQVPFTESACLLLIQPHYASDLDKVEGLTFQQNSLNWMKKLSPRTIHLTMPQLVLQGSYDLQDLLAQAELPAILHTELNLQKLSNDRIRVGEVLNSIFFELEADEREPTESTQQLNKPEVLEVTLNRPFLFAVYDQSATALHFLGRVANPLSTA | increases, 0.64 ± 0.03 vs 0.25 ± 0.01, 0.64 ± 0.03 (252%) |
| angiotensinogen (AGT): N4 (protein) parent chain: MAPAGVSLRATILCLLAWAGLAAGDRVYIHPFHLVIHNESTCEQLAKANAGKPKDPTFIPAPIQAKTSPVDEKALQDQLVLVAAKLDTEDKLRAAMVGMLANFLGFRIYGMHSELWGVVHGATVLSPTAVFGTLASLYLGALDHTADRLQAILGVPWKDKNCTSRLDAHKVLSALQAVQGLLVAQGRADSQAQLLLSTVVGVFTAPGLHLKQPFVQGLALYTPVVLPRSLDFTELDVAAEKIDRFMQAVTGWKTGCSLMGASVDSTLAFNTYVHFQGKMKGFSLLAEPQEFWVDNSTSVSVPMLSGMGTFQHWSDIQDNFSVTQVPFTESACLLLIQPHYASDLDKVEGLTFQQNSLNWMKKLSPRTIHLTMPQLVLQGSYDLQDLLAQAELPAILHTELNLQKLSNDRIRVGEVLNSIFFELEADEREPTESTQQLNKPEVLEVTLNRPFLFAVYDQSATALHFLGRVANPLSTA | increases, 0.65 ± 0.08 vs 0.25 ± 0.01, 0.65 ± 0.08 (255%) |
